Measured values as given in US20060141582A1 (ZymoGenetics, published 2006).
Values belong to the molecule of their own block, whether it stands above or below them.

Tests used:
[1] = molecular target: CRF2-4/IL-22RA heterodimeric receptor on BaF3 cells (BaF3/CRF2-4/IL-22RA cells) (human) (UniProt Q08334); assay: cell-based or functional assay
[2] = molecular target: T1, human IL-22RA on transfected cells (BaF3/IL-22RA/IL-20RB, BaF3/IL-22RA/CRF2-4, 293 or P815 cells) (human, UniProt Q8N6P7 16-574); assay: flow cytometry on P815 cells transfected with hIL-22RA, 5 ug/ml huIL-22-biotin; used to select the clone
T1 construct: also called huIL-22RA; hIL-22RA
T1 sequence: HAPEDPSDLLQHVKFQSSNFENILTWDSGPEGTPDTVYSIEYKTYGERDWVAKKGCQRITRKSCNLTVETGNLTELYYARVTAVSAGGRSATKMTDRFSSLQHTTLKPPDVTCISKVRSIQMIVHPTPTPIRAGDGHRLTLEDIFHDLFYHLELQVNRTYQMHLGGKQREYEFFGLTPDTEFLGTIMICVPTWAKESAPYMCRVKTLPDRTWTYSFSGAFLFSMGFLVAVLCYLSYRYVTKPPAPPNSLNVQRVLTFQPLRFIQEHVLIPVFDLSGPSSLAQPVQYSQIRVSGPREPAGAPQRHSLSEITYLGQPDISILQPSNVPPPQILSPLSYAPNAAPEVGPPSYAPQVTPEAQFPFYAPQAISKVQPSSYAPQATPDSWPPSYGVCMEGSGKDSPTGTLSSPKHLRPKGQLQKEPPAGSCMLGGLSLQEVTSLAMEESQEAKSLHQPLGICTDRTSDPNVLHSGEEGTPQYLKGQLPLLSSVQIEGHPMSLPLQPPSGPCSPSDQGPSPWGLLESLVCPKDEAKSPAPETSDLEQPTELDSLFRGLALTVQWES
Experimental: WT P815 Cells (ATCC No. TIB-64) were transfected with a plasmid vector containing the hIL-22RA cDNA sequence (e.g., SEQ ID NO:1) and a selectable puromycin-resistance marker, using Fugene Reagent according to the manufacturer's protocol (Roche, Indianapolis, Ind.). Cells were placed under Puromycin selection 48 hours following transfection. Puromycin-resistant transfectants were cloned by limiting dilution, and screened for their level of hIL-22RA cell surface expression by flow cytometry, using biotinylated human IL-22 (huIL-22-biotin). Briefly, cells were incubated with 5 ug/ml huIL-22-biotin for 30 minutes on ice and then washed. Binding of huIL-22-biotin to the cells was then detected using PE-labeled streptavidin at 1:500. Cells were analyzed on a Facscan flow cytometer using Cellquest software. (Becton Dickinson, San Jose, Calif.).

Chain of CRF2-4/IL-22RA heterodimeric receptor on BaF3 cells (BaF3/CRF2-4/IL-22RA cells) (human) (Q08334 20-325 limits assumed, one chain of several): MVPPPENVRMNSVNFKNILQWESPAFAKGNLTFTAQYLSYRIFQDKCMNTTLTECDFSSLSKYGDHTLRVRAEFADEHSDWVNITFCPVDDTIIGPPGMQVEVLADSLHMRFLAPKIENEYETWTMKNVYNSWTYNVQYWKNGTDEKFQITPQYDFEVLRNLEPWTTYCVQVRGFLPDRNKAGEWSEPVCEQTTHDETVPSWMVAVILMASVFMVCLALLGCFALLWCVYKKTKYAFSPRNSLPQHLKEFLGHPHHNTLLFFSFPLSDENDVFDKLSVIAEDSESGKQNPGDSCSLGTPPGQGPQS

proliferation of BaF3/CRF2-4/IL-22RA cells (Alamar Blue), fold induction at 0.06 ng/ml IL-22-CEE (fold induction) [1]: 2 | proliferation of BaF3/CRF2-4/IL-22RA cells (Alamar Blue), fold over background at 50 ng/ml IL-22-CEE (fold over background) [1]: 15
Molecule: IL-22-CEE (IL-22 polypeptide containing C-terminal GluGlu (EE) tag), purified from BHK 570 cells (ligand)

binding result [2]: binds
B1: biotinylated human IL-22 (ligand)
chain: APISSHCRLDKSNFQQPYITNRTFMLAKEASLADNNTDVRLIGEKLFHGVSMSERCYLMKQVLNFTLEEVLFPQSDRFQPYMQEVVPFLARLSNRLSTCHIEGDDLHIQRNVQKLKDTVKKLGESGEIKAIGELDLLFMSLRNACI
modifications: biotinylated (sites not given)
notes: also called huIL-22-biotin
